Assay results: the supplement of paper PMC9112550, “Optimization of the antimicrobial peptide Bac7 by deep mutational scanning” (BMC Biology, 2022)

Tested on: Escherichia coli TOP10
Experiment: shrunken log2 fold change of peptide-encoding DNA abundance (4.5 h post-induction vs induction); higher = less antimicrobial activity (less host growth inhibition)
Details: time post-induction: 4.5 h; library: site-saturation at positions 5, 18, 19, 20
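Further: peptides expressed intracellularly from a pBAD plasmid library in pooled LB shake-flask culture, induced with 0.3% L-arabinose, DNA abundance read by NGS, three biological replicates, DESeq2 with apeglm shrinkage.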

| Sequence | shrunken log2 fold change |
| --- | --- |
| RRIRSRPPRLPRPRPRPYTPPRP | -1.07 |
| RRIRSRPPRLPRPRPRPYTTPRP | -0.0205 |
| RRIRSRPPRLPRPRPRPYTYPRP | -0.0783 |
| RRIRSRPPRLPRPRPRPYVIPRP | -0.292 |
| RRIRSRPPRLPRPRPRPYVRPRP | -0.0846 |
| RRIRTRPPRLPRPRPRPAAFPRP | -0.128 |
| RRIRTRPPRLPRPRPRPAATPRP | 0.247 |
| RRIRTRPPRLPRPRPRPADLPRP | 0.0274 |
| RRIRTRPPRLPRPRPRPAEFPRP | -0.355 |
| RRIRTRPPRLPRPRPRPAENPRP | 0.0214 |
| RRIRTRPPRLPRPRPRPAFEPRP | 0.219 |
| RRIRTRPPRLPRPRPRPAFHPRP | 0.0779 |
| RRIRTRPPRLPRPRPRPAGDPRP | 0.258 |
| RRIRTRPPRLPRPRPRPAHDPRP | 0.268 |
| RRIRTRPPRLPRPRPRPAHMPRP | -0.0928 |
| RRIRTRPPRLPRPRPRPAIGPRP | 0.1 |
| RRIRTRPPRLPRPRPRPAITPRP | -0.44 |
| RRIRTRPPRLPRPRPRPAKDPRP | -0.399 |
| RRIRTRPPRLPRPRPRPAKPPRP | 0.583 |
| RRIRTRPPRLPRPRPRPAMTPRP | 0.126 |
| RRIRTRPPRLPRPRPRPAPHPRP | 0.22 |
| RRIRTRPPRLPRPRPRPAQCPRP | 0.18 |
| RRIRTRPPRLPRPRPRPAQEPRP | -0.00523 |
| RRIRTRPPRLPRPRPRPAQHPRP | 0.0266 |
| RRIRTRPPRLPRPRPRPAQLPRP | -0.216 |

| Sequence | shrunken log2 fold change |
| --- | --- |
| RRIRTRPPRLPRPRPRPAQMPRP | 0.0652 |
| RRIRTRPPRLPRPRPRPARCPRP | 0.324 |
| RRIRTRPPRLPRPRPRPAREPRP | 0.44 |
| RRIRTRPPRLPRPRPRPARYPRP | 0.189 |
| RRIRTRPPRLPRPRPRPASHPRP | -0.42 |
| RRIRTRPPRLPRPRPRPASKPRP | -0.05 |
| RRIRTRPPRLPRPRPRPASQPRP | 0.0336 |
| RRIRTRPPRLPRPRPRPASWPRP | 0.733 |
| RRIRTRPPRLPRPRPRPATGPRP | -0.123 |
| RRIRTRPPRLPRPRPRPAWTPRP | 0.101 |
| RRIRTRPPRLPRPRPRPAYMPRP | -0.384 |
| RRIRTRPPRLPRPRPRPCCFPRP | -0.114 |
| RRIRTRPPRLPRPRPRPCCMPRP | -0.197 |
| RRIRTRPPRLPRPRPRPCDHPRP | -0.0753 |
| RRIRTRPPRLPRPRPRPCELPRP | -0.271 |
| RRIRTRPPRLPRPRPRPCEWPRP | 0.013 |
| RRIRTRPPRLPRPRPRPCFSPRP | -0.3 |
| RRIRTRPPRLPRPRPRPCFYPRP | -0.351 |
| RRIRTRPPRLPRPRPRPCGFPRP | 0.268 |
| RRIRTRPPRLPRPRPRPCIAPRP | -0.226 |
| RRIRTRPPRLPRPRPRPCIIPRP | -0.0804 |
| RRIRTRPPRLPRPRPRPCKNPRP | -0.33 |
| RRIRTRPPRLPRPRPRPCLIPRP | -0.0324 |
| RRIRTRPPRLPRPRPRPCMLPRP | 0.0676 |
| RRIRTRPPRLPRPRPRPCNAPRP | -0.228 |

| Sequence | shrunken log2 fold change |
| --- | --- |
| RRIRTRPPRLPRPRPRPCPFPRP | -0.484 |
| RRIRTRPPRLPRPRPRPCQEPRP | -0.0218 |
| RRIRTRPPRLPRPRPRPCQMPRP | -0.267 |
| RRIRTRPPRLPRPRPRPCQVPRP | -0.304 |
| RRIRTRPPRLPRPRPRPCRHPRP | -0.101 |
| RRIRTRPPRLPRPRPRPCRRPRP | -0.111 |
| RRIRTRPPRLPRPRPRPCSDPRP | -0.104 |
| RRIRTRPPRLPRPRPRPCSTPRP | -0.11 |
| RRIRTRPPRLPRPRPRPCVQPRP | 0.0274 |
| RRIRTRPPRLPRPRPRPCWCPRP | -0.0474 |
| RRIRTRPPRLPRPRPRPCYYPRP | 0.0075 |
| RRIRTRPPRLPRPRPRPDAMPRP | 0.248 |
| RRIRTRPPRLPRPRPRPDCMPRP | -0.137 |
| RRIRTRPPRLPRPRPRPDDNPRP | -0.195 |
| RRIRTRPPRLPRPRPRPDGWPRP | 0.468 |
| RRIRTRPPRLPRPRPRPDHDPRP | 0.0257 |
| RRIRTRPPRLPRPRPRPDHHPRP | -0.474 |
| RRIRTRPPRLPRPRPRPDHVPRP | -0.0634 |
| RRIRTRPPRLPRPRPRPDILPRP | 0.109 |
| RRIRTRPPRLPRPRPRPDKNPRP | -0.143 |
| RRIRTRPPRLPRPRPRPDKSPRP | -0.0816 |
| RRIRTRPPRLPRPRPRPDMGPRP | -0.0558 |
| RRIRTRPPRLPRPRPRPDMQPRP | 1.96 |
| RRIRTRPPRLPRPRPRPDRNPRP | -0.09 |
| RRIRTRPPRLPRPRPRPDVWPRP | 0.33 |
